{"source": "patent US20200407435A1", "biological_target": "rhAngiopoietin-2 (R&D systems cat 623-AN/CF) (human) (UniProt O15123)", "sequence (O15123 19-496 limits assumed)": "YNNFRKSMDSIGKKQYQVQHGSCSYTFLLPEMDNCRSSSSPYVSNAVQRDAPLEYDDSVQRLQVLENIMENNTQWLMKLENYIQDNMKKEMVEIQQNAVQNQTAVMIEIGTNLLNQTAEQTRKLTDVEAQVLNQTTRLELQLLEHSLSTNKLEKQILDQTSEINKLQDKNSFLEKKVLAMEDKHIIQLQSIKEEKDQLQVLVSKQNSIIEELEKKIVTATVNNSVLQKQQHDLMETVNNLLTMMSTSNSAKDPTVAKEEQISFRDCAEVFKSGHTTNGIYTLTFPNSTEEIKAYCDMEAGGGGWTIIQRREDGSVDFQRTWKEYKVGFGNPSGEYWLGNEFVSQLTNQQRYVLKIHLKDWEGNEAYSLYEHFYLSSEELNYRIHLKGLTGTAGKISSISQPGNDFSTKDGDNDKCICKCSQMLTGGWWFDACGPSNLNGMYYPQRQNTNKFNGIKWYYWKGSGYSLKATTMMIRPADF", "assay": "cell-based or functional assay", "note": "Values joined by “and” are separate entries in the source; they are usually repeats but may differ in a detail not shown here. Equal values may be shown once."}
{"substance": "Nesvacumab analog (Regeneron) (antibody)", "values": [{"measurement": "Tie2 phosphorylation functional assay, EC50", "value": "4.4 nM and 2.2 nM"}]}
